{"source": "paper doi:10.1101/2024.12.09.627393", "key": {"H4Tetra^ac nucleosome": {"biological_target": "H4Tetra^ac nucleosome (UniProt P68431)", "assay": "AlphaScreen or HTRF; dCypher: GST-CECR2-BRD titrated against PTM-defined nucleosomes (10 nM); glutathione Acceptor and streptavidin Donor beads; 20 mM Tris pH 7.5, 250 mM NaCl, 0.01% NP-40, 0.01% BSA, 1 mM DTT; room temperature; relative EC50 (EC50^rel)"}, "H3Tetra^ac nucleosome": {"biological_target": "H3Tetra^ac nucleosome (UniProt P68431)", "assay": "AlphaScreen or HTRF; dCypher: GST-CECR2-BRD titrated against PTM-defined nucleosomes (10 nM); glutathione Acceptor and streptavidin Donor beads; 20 mM Tris pH 7.5, 250 mM NaCl, 0.01% NP-40, 0.01% BSA, 1 mM DTT; room temperature; relative EC50 (EC50^rel)"}}, "data": [{"substance": "GST-CECR2-BRD (GST tag retained, for dCypher assays) (from UniProt Q9BXF3-1 424-538) (domain or fragment)", "values": [{"measurement": "EC50", "setting": "H4Tetra^ac nucleosome", "value": 9.2, "unit": "nM"}, {"measurement": "EC50", "setting": "H3Tetra^ac nucleosome", "value": 6, "unit": "nM"}]}]}
